Measurements reported in paper PMC11853100 (2025).

Target: T1, Pneumolysin (Ply) (Streptococcus pneumoniae, UniProt Q04IN8)
T1 chain: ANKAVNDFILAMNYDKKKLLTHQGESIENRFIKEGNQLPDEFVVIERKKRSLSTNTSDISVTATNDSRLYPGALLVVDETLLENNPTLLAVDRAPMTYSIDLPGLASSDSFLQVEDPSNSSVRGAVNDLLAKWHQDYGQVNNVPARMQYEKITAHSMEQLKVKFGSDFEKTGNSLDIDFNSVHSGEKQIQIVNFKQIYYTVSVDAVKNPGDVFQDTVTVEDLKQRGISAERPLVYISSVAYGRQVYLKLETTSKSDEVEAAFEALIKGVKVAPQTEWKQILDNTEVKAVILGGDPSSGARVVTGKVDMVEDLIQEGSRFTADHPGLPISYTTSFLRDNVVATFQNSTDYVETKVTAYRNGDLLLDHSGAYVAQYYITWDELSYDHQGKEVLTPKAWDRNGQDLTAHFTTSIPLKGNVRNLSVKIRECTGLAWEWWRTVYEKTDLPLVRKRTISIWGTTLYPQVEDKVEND
Experiment: ITC; given as Ka

B1: SpnPrsA (protein)
chain: CSKGSEGADLISMKGDVITEHQFYEQVKNNPSAQQVLLNMTIQKVFEKQYGSELDDKEVDDTIAEEKKQYGENYQRVLSQAGMTLETRKAQIRTSKLVELAVKKVAEAELTDEAYKKAFDEYTPDVTAQIIRLNNEDKAKEVLEKAKAEGADFAQLAKDNSTDEKTKENGGEITFDSASTEVPEQVKKAAFALDVDGVSDVITATGTQAYSSQYYIVKLTKKTEKSSNIDDYKEKLKTVILTQKQNDSTFVQSIIGKELQAANIKVKDQAFQNIFTQYIGGGDSSSSSSTSNE
In the case of B1, the Kd is reported as 119 nM.
